# Data reported in patent US12060408B2, “Screening assays, modulators and modulation of activation of Receptor for Advanced Glycation End-products (RAGE)” (Monash University, priority 2017, dated 2024).
# “Also recorded” adds a separate entry of the source. Ends that are not written are not given here.
# B1: CCL4: chemokine ligand used to activate CCR5 (protein)
# chain: APMGSDPPTACCFSYTARKLPRNFVVDYYETSSLCSQPAVVFQTKRSKQVCADPSESWVQEYVYDLELN
# Columns and labels:
# RAGE [1] = biological target: T1, RAGE (Homo sapiens, UniProt Q15109); test: Ang II-induced pro-inflammatory gene expression in human aortic endothelial cells (HAEC); format: cell-based; details: HAECs; 1 μM, 30 minutes before Ang II; FIG. 13G
# T1 construct: RAGE-AT1R—CHO cells expressing both full length RAGE and AT1R; expressed in transfected cells
# Description: To confirm the applicability of inhibition strategies to human tissues, additional experiments were undertaken in primary aortic endothelial cells from humans (Lonza). HAECs were grown in EGM-2 media. […]
# CCR2 = biological target: T2, CCR2 (Homo sapiens, UniProt P41597); test: Receptor-HIT BRET, β-arrestin2/Venus with RAGE/Rluc8 and CCR2; format: cell-based
# T2 construct: expressed in transfected cells; host or cells: HEK293FT, transient
# Source text: (§1) Bioluminescence Resonance Energy Transfer (BRET)
# (§2) BRET is an established technology for studying protein-protein proximity in live cells, particularly involving GPCRs (Pfleger and Eidne, 2006). One protein of interest was linked to a bioluminescent donor enzyme, Rluc8, a variant of Renilla luciferase, and a second linked to an acceptor fluorophore, Venus, a variant of green fluorescent protein. If in close proximity (<10 nm), energy resulting from the rapid oxidation of a cell-permeable coelenterazine substrate by the donor can transfer to the acceptor, which in turn fluoresces at a longer characteristic wavelength.
# (§3) Plasmids were transiently co-expressed in human embryonic kidney (HEK) 293FT cells and BRET measurements taken at 37° C. using a POLARstar Omega or LUMIstar plate reader (BMG Labtech, Mornington, Victoria, Australia) with 460-490 nm (‘donor emission’) and 520-550 nm (‘acceptor emission’) filters, or a VICTOR Light plate reader (Perkin Elmer, Glen Waverley, Victoria, Australia) with 400-475 nm (‘donor emission’) and 520-540 nm (‘acceptor emission’) filters, or a CLARIOstar plate reader (BMG Labtech, Mornington, Victoria, Australia) with 420-480 nm (‘donor emission’) and 520-620 nm (‘acceptor emission’) filters. […]
# (§4) For BRET kinetic assays, the final pre-treatment reading is presented at the zero time point (time of ligand/vehicle addition). […]
# orexin receptor 1 (OxR1) = biological target: T3, orexin receptor 1 (OxR1) (Homo sapiens, UniProt O43613); test: Receptor-HIT BRET, β-arrestin2/Venus with RAGE/Rluc8 and orexin receptor 1; format: cell-based
# T3 construct: expressed in transfected cells; host or cells: HEK293FT, transient
# Source text: as §1, §2, §3, §4
# murine SVEC = test: Induction of ICAM-1 by Ang II in murine SVEC transfected with RAGE constructs (RT-PCR); format: cell-based, mouse; details: transfected construct (FIG. 12)
# Source text: FIG. 12A. The effect of transfection of murine SVEC with RAGE or RAGE mutants on the induction of ICAM-1 by Ang II compared to vector alone (pc-Neo) as a control, as measured by RT-PCR. Data are mean±SEM; n=6-8 per group. * vs untreated control, # vs neo+Ang II, p<0.05.
# FIG. 12B. The effect of transfection with truncated RAGE mutants on the induction of ICAM-1 by Ang II in murine SVEC to identify the smallest fragments with inhibitory activity. Data are mean±SEM; n=6-8 per group, * vs no treatment control, p<0.05.
# FIG. 12D. The effect of transfection with single site-specific alanine or lysine mutants of RAGE370-390 on the induction of ICAM-1 by Ang II in murine SVEC. Data are mean±SEM; n=6-8 per group, * vs no treatment control, p<0.05.
# (§5) Cellular Expression of Pro-Inflammatory Markers and Mediators by Quantitative Real-Time PCR
# After 2 hours of exposure to Ang II (1 μM) or the RAGE ligand, S100A8/A9 (5 ng/ml) cells were placed in Trizol, mRNA extracted and cDNA synthesized. Changes in the gene expression of the NFκB subunit, p65 (RelA) or NFκB-activated target genes (e.g ICAM-1, VCAM-1) were estimated by quantitative real-time RT-PCR, performed using the TaqMan system based on real-time detection of accumulated fluorescence (ABI Prism 7700, Perkin-Elmer Inc, PE Biosystems, Foster City, CA, USA). […]
# [2] = test system: RAGE ligand-dependent activation of RAGE; test: S100A8/A9-induced NFκB activation (p65 gene expression) in CHO cells expressing RAGE constructs; format: cell-based, human; details: summary statement, cell system not given
# Description: (§6) Generation of Transgenic Chinese Hamster Ovary Cells
# (§7) 100 ng of AT1R-Rluc8 construct was transfected into CHO cells using Lipofectamine 2000 (Thermo). Stable transfectants were selected using G418. AT1R—CHO were then transiently transfected with RAGE constructs using Lipofectamine 2000 (Invitrogen) and incubated for 16 h. The Homo sapiens AGER transcript variant 1 coding sequence (NM_001136) was synthesised and cloned between the NheI and XbaI sites of pCIneo (Promega) to generate the vector pCIneo-RAGE. This plasmid was then used to generate a library of mutant AGER clones (NP_001127). Primers 1-RAGE-SP-5′ and mCherry-XhoI-NotI-3′ were used to amplify the coding sequence of mCherry from the vector pmCherry-C1. The resultant PCR product was then used as template for a second PCR using primers 2-RAGE-SP-5′ and mCherry-XhoI-NotI-3′. The PCR product generated was digested with NheI and NotI and inserted between the NheI and NotI sites of pCIneo to generate pCIneo-SP-mCherry. The sequence of the insert was confirmed by DNA sequencing (Micromon, Monash University). […]
# as §5
# (§8) After 2 hours of exposure to Ang II (1 μM) or the RAGE ligand, S100A8/A9 (5 ng/ml) cells were placed in Trizol, mRNA extracted and cDNA synthesized. Changes in the gene expression of the NFκB subunit, p65 (RelA) or NFκB-activated target genes (e.g ICAM-1, VCAM-1) were estimated by quantitative real-time RT-PCR, performed using the TaqMan system based on real-time detection of accumulated fluorescence (ABI Prism 7700, Perkin-Elmer Inc, PE Biosystems, Foster City, CA, USA). Gene expression was normalized to 18S mRNA and reported as fold change compared to the level of expression in untreated control mice/cells, which were given an arbitrary value of 1.
# To measure the induction of NFκB activity by 1 μM Ang II, or 5 ng/ml of the RAGE-ligand S100A8/A9 as a signalling control, AT1R—CHO cells were transfected with 0.4 μg of plasmids encoding NFκB-SEAP or β-galactosidase (β-Gal) using Lipofectamine 2000 (Invitrogen) as per manufacturer's instructions. After 24 hours, cells transfected with each plasmid combination were then treated with Ang II (1 μM) or left untreated and incubated for 4 hours before cell supernatants and cell lysates were collected. Cell supernatants were analysed using a chemiluminescent SEAP reporter gene assay (Roche Applied Science) to detect SEAP production after treatment. To control for transfection efficiency, cell lysates were assayed for β-Gal using a commercially available kit (Promega).
# [3] = test system: RAGE ligand-independent activation of RAGE by activated AT1R; test: Ang II-induced NFκB activation (p65 gene expression, SEAP reporter) in AT1R-CHO cells with RAGE constructs; format: cell-based, human; details: summary statement, cell system not given
# Description: as §6, §7, §5, §8
# Oligopeptides (Cherry-TAT (control), mCherry-TAT-RAGE362-404 and mCherry-S391A-TAT-RAGE362-404 were generated by transformation of the Escherichia coli strain ClearColi BL21 (DE3; Lucigen). A single transformed colony was inoculated into 50 ml 2YT medium containing 100 μg/ml ampicillin and the culture was grown overnight at 37° C. with shaking at 250 rev/min. 10 ml overnight culture was used to inoculate 1 litre 2YT medium containing 100 μg/ml ampicillin and the culture was grown at 37° C. with shaking at 250 rev/min. When the cultures reached an OD600 of 0.8, the temperature was shifted to 15° C. for 30 min after which protein expression was induced by the addition of 1 mM isopropyl β-D-1-thiogalacto-pyranoside (IPTG). Following the addition of IPTG the cultures were grown for ˜16 h at 15° C. with shaking at 250 rev/min. Cells were harvested by centrifugation (3500 g, 4° C., 20 min) and resuspended in ice-cold lysis buffer (50 mM Tris pH 7.4, 300 mM NaCl, 10 mM imidazole and 5 mM beta-mercaptoethanol). The resuspended cells were sonicated and insoluble material was pelleted by centrifugation (13 000 g, 4° C., 30 min). The supernatant was filtered (0.2 μm) and applied onto a gravity-flow column with a 1 ml Ni-NTA Agarose resin bed volume (Qiagen) pre-equilibrated with lysis buffer. After the supernatant was passed over the resin, the column was washed with 100 ml of wash buffer (20 mM imidazole, 50 mM Tris pH 7.4, 150 mM NaCl, 5 mM beta-mercaptoethanol). His-tagged TAT-mCherry and TAT-mCherry-RAGE peptides were eluted from the resin using elution buffer (250 mM imidazole, 50 mM Tris pH 7.4, 150 mM NaCl, 5 mM beta-mercaptoethanol). […]
# TRH receptor 1 (TRHR1) = test: Receptor-HIT BRET, β-arrestin2/Venus with RAGE/Rluc8 and TRH receptor 1; format: cell-based
# Source text: as §1, §2, §3, §4
# RAGE [4] = biological target: T1, RAGE; test: Ang II-induced pro-inflammatory signalling (p65-NFκB expression) in AT1R-CHO / RAGE-AT1R-CHO cells; format: cell-based; details: RAGE-AT1R-CHO cells; 1 hour pre-treatment, 1 μg/mL; 1 μM Ang II; FIG. 6A
# RAGE [5] = biological target: T4, RAGE (Mus musculus, UniProt Q62151); test: S100A8/A9-induced pro-inflammatory signalling in PMAEC; format: cell-based; details: 1 hour pre-treatment, 1 μg/mL, S100A8/A9 5 ng/ml, FIG. 6C
# T4 construct: in murine SVEC that are endogenously replete in RAGE expression; host or cells: Svec4-10 mouse endothelial cells
# Description: (§9) Additional experiments were conducted in the presence and absence of a 1 hour pre-treatment with a neutralizing antibody to RAGE (RAGEab; R&D systems; 1 μg/mL) or soluble RAGE22-331 (sRAGE; 1 μg/mL) prior to exposure to 1 μM Ang II or 5 ng/ml of the RAGE ligand, S100A8/A9.
# (§10) Additional experiments were conducted in the presence and absence of a 1 hour pre-treatment with a pseudo-substrate for PKCζ (iPKCζ, 5 μM, Tocris).
# (§11) To confirm the applicability of inhibition strategies to human tissues, additional experiments were undertaken in primary aortic endothelial cells from humans (Lonza). HAECs were grown in EGM-2 media. In each case cells were treated with mCherry-TAT (control), TAT-mCherry-RAGE362-404 (wild type), or TAT-mCherry-S391A-RAGE362-404 at a dose of 0.4 ng/ml for 30 min prior to treatment with either Ang II (1 μM), or S100A8/A9 (2 μg/ml; R&D systems) for 2h.
# RAGE [6] = biological target: T1, RAGE; test: S100A8/A9-induced pro-inflammatory signalling in RAGE-AT1R-CHO cells; format: cell-based; details: 1 hour pre-treatment, 1 μg/mL, S100A8/A9 5 ng/ml, FIG. 6A
# Description: as §9, §11
# RAGE [7] = biological target: T4, RAGE; test: Ang II-induced pro-inflammatory signalling in PMAEC; format: cell-based; details: 1 hour pre-treatment, 1 μg/mL, 1 μM Ang II, FIG. 6B
# Description: as §9, §10, §11
# CCR5 = biological target: T5, CCR5 (Homo sapiens, UniProt P51681); test: Receptor-HIT BRET, β-arrestin2/Venus with RAGE/Rluc8 and CCR5; format: cell-based
# T5 construct: expressed in transfected cells; host or cells: HEK293FT, transient
# Source text: as §1, §2, §3, §4
# T1 sequence (Q15109 23-404): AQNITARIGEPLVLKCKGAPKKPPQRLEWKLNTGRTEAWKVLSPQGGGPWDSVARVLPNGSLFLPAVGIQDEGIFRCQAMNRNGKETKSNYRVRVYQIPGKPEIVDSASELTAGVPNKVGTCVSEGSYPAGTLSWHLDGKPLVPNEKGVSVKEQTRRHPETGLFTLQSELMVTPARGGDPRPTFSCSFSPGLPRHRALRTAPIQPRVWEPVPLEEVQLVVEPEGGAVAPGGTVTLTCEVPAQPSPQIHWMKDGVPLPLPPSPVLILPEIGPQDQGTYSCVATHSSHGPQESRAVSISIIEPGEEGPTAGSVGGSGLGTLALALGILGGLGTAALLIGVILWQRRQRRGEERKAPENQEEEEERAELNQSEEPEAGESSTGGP
# T5 sequence (P51681 whole entry): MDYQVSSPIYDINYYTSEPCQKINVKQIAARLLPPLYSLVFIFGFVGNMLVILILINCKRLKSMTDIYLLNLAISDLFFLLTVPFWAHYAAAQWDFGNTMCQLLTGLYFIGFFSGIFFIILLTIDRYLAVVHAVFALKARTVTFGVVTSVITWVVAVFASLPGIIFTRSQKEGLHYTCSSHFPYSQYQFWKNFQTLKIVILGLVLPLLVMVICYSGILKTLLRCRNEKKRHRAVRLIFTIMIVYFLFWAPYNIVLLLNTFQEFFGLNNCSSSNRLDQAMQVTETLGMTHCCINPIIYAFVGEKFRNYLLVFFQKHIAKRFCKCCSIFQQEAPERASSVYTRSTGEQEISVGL
# T5 sequence (P32121 whole entry partner): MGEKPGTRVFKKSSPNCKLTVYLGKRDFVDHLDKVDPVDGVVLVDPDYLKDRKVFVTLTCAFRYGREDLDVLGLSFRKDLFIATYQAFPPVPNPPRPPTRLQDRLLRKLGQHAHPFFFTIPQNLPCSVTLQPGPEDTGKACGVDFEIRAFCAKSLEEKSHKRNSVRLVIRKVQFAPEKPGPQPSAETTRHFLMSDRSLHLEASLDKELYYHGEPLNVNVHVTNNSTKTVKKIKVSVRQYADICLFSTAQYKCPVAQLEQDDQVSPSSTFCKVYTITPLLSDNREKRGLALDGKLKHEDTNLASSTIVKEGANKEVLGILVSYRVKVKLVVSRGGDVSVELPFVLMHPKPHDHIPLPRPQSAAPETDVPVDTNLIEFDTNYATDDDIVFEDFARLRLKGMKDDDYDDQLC
# T2 sequence (P41597 whole entry): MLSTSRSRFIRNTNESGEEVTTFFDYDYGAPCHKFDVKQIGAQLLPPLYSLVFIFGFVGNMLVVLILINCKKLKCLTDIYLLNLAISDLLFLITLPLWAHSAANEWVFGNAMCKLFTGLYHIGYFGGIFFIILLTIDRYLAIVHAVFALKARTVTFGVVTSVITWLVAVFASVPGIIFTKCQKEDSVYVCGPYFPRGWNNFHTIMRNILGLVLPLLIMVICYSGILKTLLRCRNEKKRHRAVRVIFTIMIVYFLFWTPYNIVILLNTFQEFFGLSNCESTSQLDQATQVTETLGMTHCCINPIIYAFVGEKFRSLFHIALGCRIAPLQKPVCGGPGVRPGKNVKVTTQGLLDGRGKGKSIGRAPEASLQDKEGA
# T2 sequence (P32121 whole entry partner): as the sequence (P32121 whole entry partner) above
# T4 sequence (Q62151 23-402): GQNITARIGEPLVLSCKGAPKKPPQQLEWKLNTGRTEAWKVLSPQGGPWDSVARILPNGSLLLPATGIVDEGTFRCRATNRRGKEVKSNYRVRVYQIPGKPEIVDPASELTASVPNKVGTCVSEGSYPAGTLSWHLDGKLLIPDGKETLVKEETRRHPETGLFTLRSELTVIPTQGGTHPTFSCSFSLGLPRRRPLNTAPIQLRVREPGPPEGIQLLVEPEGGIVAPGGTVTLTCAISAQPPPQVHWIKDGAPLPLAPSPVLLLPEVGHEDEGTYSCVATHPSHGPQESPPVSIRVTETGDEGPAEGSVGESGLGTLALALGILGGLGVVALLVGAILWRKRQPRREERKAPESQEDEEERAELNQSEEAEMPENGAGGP
# T3 sequence (O43613 whole entry): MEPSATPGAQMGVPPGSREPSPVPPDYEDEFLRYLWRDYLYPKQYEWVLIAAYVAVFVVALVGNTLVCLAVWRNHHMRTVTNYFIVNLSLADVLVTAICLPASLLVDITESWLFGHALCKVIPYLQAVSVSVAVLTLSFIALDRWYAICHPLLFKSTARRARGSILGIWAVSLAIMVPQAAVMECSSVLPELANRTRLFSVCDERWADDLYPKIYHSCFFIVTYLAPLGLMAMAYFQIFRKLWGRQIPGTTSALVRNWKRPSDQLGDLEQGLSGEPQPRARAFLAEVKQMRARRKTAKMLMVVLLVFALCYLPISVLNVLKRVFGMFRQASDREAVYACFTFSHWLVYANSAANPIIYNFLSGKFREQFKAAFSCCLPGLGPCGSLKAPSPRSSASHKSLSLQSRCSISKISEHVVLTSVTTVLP
# T3 sequence (P32121 whole entry partner): as the sequence (P32121 whole entry partner) above
molecule,measurement,setting,value
CCCCC1=NC2(CCCC2)C(=O)N1Cc1ccc(-c2ccccc2-c2nnn[nH]2)cc1 [irbesartan],Ang II-induced induction of pro-inflammatory genes,RAGE [1],inhibitory effect
"CCL2: monocyte chemotactic protein-1, cognate ligand of CCR2",recruitment of βarrestin2/Venus to CCR2/Rluc8,CCR2; control,recruitment
same,recruitment of β-arrestin2/Venus proximal to RAGE/Rluc8,CCR2; in the presence of CCR2,recruitment
"Orexin A (QPLPDCCRQKTCSCRLYELLHGAGNHAAGILTL; not fully specified (residue 1, C-terminus, bridges); cysteine pairing not given here; UniProt O43612 34-66, looked up) [OxA]",recruitment of βarrestin2/Venus to OxR1/Rluc8,orexin receptor 1 (OxR1); control,recruitment
same,recruitment of β-arrestin2/Venus proximal to RAGE/Rluc8,orexin receptor 1 (OxR1); in the presence of OxR1,recruitment
Q379EEEEERAELNQ390 (QEEEEERAELNQ; listed as Homo sapiens) [RAGE379-390],inhibition of Ang II-induced ICAM-1 (acting on wild type RAGE),murine SVEC,does not result in a loss of function
same,inhibition of RAGE ligand-dependent activation of wild-type RAGE (S100A8/A9),[2],inhibiting
same,inhibition of RAGE ligand-independent activation of wild-type RAGE by activated AT1R,[3],inhibiting
Thyrotrophin-releasing hormone [TRH],recruitment of βarrestin2/Venus to TRHR1/Rluc8,TRH receptor 1 (TRHR1); control,recruitment
same,recruitment of β-arrestin2/Venus proximal to RAGE/Rluc8,TRH receptor 1 (TRHR1); in the presence of TRHR1,weak recruitment
sRAGE22-331: soluble RAGE decoy with ligand-binding affinity; extracellular ligand-binding V-C1-C2 domains of RAGE,RAGE ligand-independent induction of pro-inflammatory signalling by Ang II,RAGE [4],do not affect
same,pro-inflammatory signalling induced by the RAGE ligand S100A8/A9,RAGE [5],able to attenuate
same,RAGE ligand-dependent induction of pro-inflammatory signalling by S100A8/A9,RAGE [6],block
same,Ang II-AT1R-dependent induction of pro-inflammatory signalling,RAGE [7],does not attenuate
B1,recruitment of βarrestin2/Venus to CCR5/Rluc8,CCR5; control,recruitment
same,recruitment of β-arrestin2/Venus proximal to RAGE/Rluc8,CCR5; in the presence of CCR5,particularly weak recruitment; also recorded: Lack of
